Data set [1] concerns the target L,L-diaminopimelate aminotransferase from Chlamydomonas reinhardtii (Chlamydomonas reinhardtii). The data set is described as follows: AUC; sedimentation velocity, 9.2 µM (0.45 mg/mL) Cr-DapL, 20 °C, 50 mM HEPES, 0.5 mM DTT, 1 mM EDTA, 50 mM NaCl pH 8.0, 45,000 rpm; c(s) and c(M) distributions in SEDFIT.
Substrate in data set [2]: N[C@@H](CCC(=O)O)C(=O)O
The data set is described as follows: purified protein. Type of data set: biochemical, Chlamydomonas reinhardtii. The note with it: forward direction, amino donor, saturating THDPA generated in situ from meso-DAP by C. glutamicum Ddh, 100 mM HEPES-KOH pH 7.6.

Substrate in data set [3]: N[C@@H](CCC[C@H](N)C(=O)O)C(=O)O
Briefly: purified protein. It is filed as biochemical, Chlamydomonas reinhardtii. The note with it: reverse direction, amino donor, saturating 2-oxoglutarate, 0.3 mM NADPH, 50 mM NH4Cl, 100 mM HEPES-KOH pH 7.6, 30 °C.

Substrate in data set [4]: O=C(O)C1=N[C@H](C(=O)O)CCC1
Briefly: purified protein. Type of data set: biochemical, Chlamydomonas reinhardtii. The note with it: forward direction, co-substrate glutamate 5.0 mM, THDPA generated in situ from meso-DAP by C. glutamicum Ddh with NADP, 100 mM HEPES-KOH pH 7.6.

Substrate in data set [5]: O=C(O)CCC(=O)C(=O)O
The data set is described as follows: purified protein. As to conditions: reverse direction, amino acceptor, saturating L,L-DAP, 0.3 mM NADPH, 50 mM NH4Cl, 100 mM HEPES-KOH pH 7.6, 30 °C. Type of data set: biochemical, Chlamydomonas reinhardtii.

2 molecules from publication PMC3102117, “L,L-Diaminopimelate Aminotransferase from Chlamydomonas reinhardtii: A Target for Algaecide Development” (PLoS ONE, 2011) can be followed below.

The stoichiometry N is a count of units in the complex or per binding partner. What is called Km is the concentration of substrate that gives half-maximal velocity. One may read the kcat as the maximal rate divided by the concentration of active sites. For orientation: Vmax means the rate approached at saturating substrate.

Take “L,L-diaminopimelate aminotransferase from Chlamydomonas reinhardtii (enzyme)”: in data set [1], the stoichiometry N was 2.

B1: Cr-DapL (Chlamydomonas reinhardtii) (protein)
chain: MQLNVRSTASGARSSTRSRRMTAVVQAVAQRAGTIDVQRNENFGKLRAGYLFPEIARRRKAHQEKNPDAKIISLGIGDTTEPLPKYIADAMAKAAAGLATREGYSGYGAEQGQGALREAVASTFYGHAGRAADEIFISDGSKCDIARIQMMFGSKPTVAVQDPSYPVYVDTSVMMGMTGDHNGTGFDGIEYMVCNPDNHFFPDLSKAKRTDIIFFCSPNNPTGAAATRAQLTELVNFARKNGSILVYDAAYALYISNPDCPKTIYEIPGADEVAIETCSFSKYAGFTGVRLGWTVVPKALKYANGEPVHADWNRVMTTCFNGASNIVQAGGLACLQPEGLKEMNAMIKFYKENAQILKTTFTEMGFSVYGGDDAPYIWVGFPGKPSWDVFAEILERCNIVTTPGSGFGPAGEGFVRASAFGSRENILEAVRRFKEAYGKRN
notes: monomeric mass 48,830 Da; dimer; EC 2.6.1.83
B1: the Km in the data set “purified protein [2]” was 900 ± 400 µM; in “purified protein [3]” it was 300 ± 20 µM; in “purified protein [4]”, 100 ± 10 µM; in “purified protein [5]”, 2200 ± 700 µM. Further, the turnover number (kcat) in the data set “purified protein [2]” stood at 1.1 s⁻¹; in “purified protein [3]” it was 19 s⁻¹; in the data set “purified protein [4]”, 1.1 s⁻¹; in “purified protein [5]” it was 19.0 s⁻¹. Also, the Vmax is 11.6 µmol/min/mg in “purified protein [3]” and 0.68 µmol/min/mg in “purified protein [4]”.
